From PMC3660137

Substrate: CCCCCC(O)/C=C/C=O
Assay: LC/MS of GSHNE conjugate, initial rate
Type: biochemical, Oncorhynchus kisutch
Settings: 1 mM GSH, 30 °C, 10–150 μM HNE

B1: OlfGST pi; OkGST pi; GST pi (Oncorhynchus kisutch) (protein)
chain: MGPYTITYFGVRGRCGAMRIMMADQGQEWKEILMDFADWTKGDLKASCVFGQLPKFEDGGLVLYQSNAILRHLGRNHDAYGKDGKEAARIDMMCDGVEDLRLKYGKMIYQEYDTGKDQYIKDLPNHLDKFEAVMAKNKTGFLVGDKPSFADYSLFEVLLNHLVLCSSCLDTSPSLKSFVEKMSARPKIKAFLGSDAYKKLPINGNGKQ
  Km: 160 ± 60 µM
  Vmax: 0.5 µmol/min/mg
  kcat: 0.37 ± 0.09 s⁻¹
  kcat/Km: 2300 ± 1100 M⁻¹ s⁻¹
